Reference: patent US20090149339A1 (published 2009)
Ends that are not written are not given here. * marks the point of attachment. Biotin = O=C1N[C@H]2[C@H](CS[C@H]2CCCCC(=O)*)N1

Experiments:
[1] = target: T1, GST-NeDLG PDZ domain fusion protein (presynaptic protein sao102, neuroendocrine-dlg; PDZ domains 1-2 of 3) (UniProt P08515 1-218 = GST); assay: A/G assays
T1 construct: also called NeDLG1

[2] = target: GST-LIMK2 PDZ domain fusion protein (human LIM domain kinase 2 AA185-275; PDZ domain 1 of 1) (human, UniProt P08515 1-218 = GST); assay: A/G assays
[3] = target: T2, GST-MPP2 PDZ domain fusion protein (maguk p55 subfamily member 2 (DLG2) AA185-273; PDZ domain 1 of 1) (UniProt P08515 1-218 = GST); assay: A/G assays
T2 construct: also called MMP2

[4] = target: T3, GST-TAX43 PDZ domain fusion protein (human tax interaction protein 43 AA15-85; PDZ domain 1 of 1) (human, UniProt P08515 1-218 = GST); assay: A/G assays
T3 construct: also called TX 43

[5] = target: T4, GST-KIAA0559 PDZ domain fusion protein (KIAA0559 AA766-870; PDZ1 of 1) (UniProt P08515 1-218 = GST); assay: A/G assays
T4 construct: also called K559

[6] = target: T5, GST-AF6 PDZ domain fusion protein (af-6 protein AA985-1077; PDZ domain 1 of 1) (UniProt P08515 1-218 = GST); assay: A/G assays
[7] = target: T6, GST-KIAA0316 PDZ domain fusion protein (KIAA0316 AA197-284; PDZ domain 1 of 1) (UniProt P08515 1-218 = GST); assay: A/G assays
T6 construct: also called K316

[8] = target: T7, GST-KIAA0303 PDZ domain fusion protein (KIAA0303 AA652-742; PDZ domain 1 of 1) (UniProt P08515 1-218 = GST); assay: A/G assays
T7 construct: also called K303

[9] = target: T8, GST-TAX2 PDZ domain fusion protein (human tax interaction protein 2 AA54-140; PDZ domain 1 of 1) (human, UniProt P08515 1-218 = GST); assay: A/G assays
T8 construct: also called TX 2

[10] = target: T9, GST-SYN1a PDZ domain fusion protein (alpha1-syntrophin AA96-189; PDZ domain 1 of 1) (UniProt P08515 1-218 = GST); assay: A/G assays
T9 construct: also called SYN 1 alpha; SYNTR 1 alpha

[11] = target: T10, GST-TAX33 PDZ domain fusion protein (tax interaction protein 33 AA73-162; PDZ domain 1 of 1) (UniProt P08515 1-218 = GST); assay: A/G assays
T10 construct: also called TX33

[12] = target: T11, GST-CBP PDZ domain fusion protein (Cytohesin binding protein HE AA85-175; PDZ domain 1 of 1) (UniProt P08515 1-218 = GST); assay: A/G assays
T11 construct: also called Prot

[13] = target: T12, GST-CASK PDZ domain fusion protein (CASK AA495-584; PDZ domain 1 of 1) (mouse, UniProt P08515 1-218 = GST); assay: A/G assays
T12 construct: also called mCASK

[14] = target: GST-LIM PDZ domain fusion protein (Human LIM protein AA29-112; PDZ domain 1 of 1) (human, UniProt P08515 1-218 = GST); assay: A/G assays
[15] = target: GST-PTN-4 PDZ domain fusion protein (protein-tyrosine phosphatase meg1 AA774-862; PDZ domain 1 of 1) (UniProt P08515 1-218 = GST); assay: A/G assays
[16] = target: T13, GST-TIAM1 PDZ domain fusion protein (T-lymphoma invasion and metastasis inducing protein 1 AA1001-1088); PDZ 1 … (UniProt P08515 1-218 = GST); assay: A/G assays
[17] = target: T14, GST-PSD95 PDZ domain fusion protein (human post-synaptic density protein 95 AA387-724; PDZ domains 1-3 of 3) (human, UniProt P08515 1-218 = GST); assay: A/G assays
[18] = target: GST-NOS1 PDZ domain fusion protein (human neuronal nitric oxide synthase; PDZ domain 1 of 1) (human, UniProt P08515 1-218 = GST); assay: A/G assays
[19] = target: T15, GST-DVL1 PDZ domain fusion protein (human dishevelled segment polarity protein homolog AA248-340); PDZ domain … (human, UniProt P08515 1-218 = GST); assay: A/G assays
[20] = target: T16, GST-TAX40 PDZ domain fusion protein (human tax interaction protein 40 AA35-137; PDZ domain 1 of 1) (human, UniProt P08515 1-218 = GST); assay: A/G assays
T16 construct: also called TX 40

[21] = target: GST-MINT3 PDZ domain fusion protein (human MINT3 AA11-52; PDZ domain 1 of 1) (human, UniProt P08515 1-218 = GST); assay: A/G assays
[22] = target: T17, GST-RGS12 PDZ domain fusion protein (human regulator of G-protein signalling 12 AA35-103; PDZ domain 1 of 1) (human, UniProt P08515 1-218 = GST); assay: A/G assays
T17 construct: also called RSG12

[23] = target: T18, GST-41.8 kD PDZ domain fusion protein (hypothetical 41.8 kD protein AA4-85; PDZ domain 1 of 1) (UniProt P08515 1-218 = GST); assay: A/G assays
T18 construct: also called hypoth

[24] = target: T19, GST-prIL16 PDZ domain fusion protein (putative interleukin 16 precursor AA170-383; PDZ domains 1-2 of 2) (UniProt P08515 1-218 = GST); assay: G assay
[25] = target: T20, GST-MPP1 PDZ domain fusion protein (55 Kd erythrocyte membrane protein AA101-186; PDZ domain 1 of 1) (UniProt P08515 1-218 = GST); assay: G assay
[26] = target: T3, GST-TAX43 PDZ domain fusion protein …; assay: A assay
[27] = target: T19, GST-prIL16 PDZ domain fusion protein …; assay: A assay
[28] = target: T20, GST-MPP1 PDZ domain fusion protein (55 …); assay: A assay
[29] = target: T5, GST-AF6 PDZ domain fusion protein (af-6 …); assay: A assay
[30] = target: T9, GST-SYN1a PDZ domain fusion protein …; assay: A assay
[31] = target: T13, GST-TIAM1 PDZ domain fusion protein …; assay: A assay
[32] = target: T15, GST-DVL1 PDZ domain fusion protein …; assay: A assay
[33] = target: T16, GST-TAX40 PDZ domain fusion protein …; assay: A assay
[34] = target: T17, GST-RGS12 PDZ domain fusion protein …; assay: A assay
[35] = target: T18, GST-41.8 kD PDZ domain fusion protein …; assay: A assay
[36] = target: T1, GST-NeDLG PDZ domain fusion protein …; assay: G assay
[37] = target: T12, GST-CASK PDZ domain fusion protein …; assay: G assay
[38] = target: T14, GST-PSD95 PDZ domain fusion protein …; assay: A and G assays
[39] = target: T19, GST-prIL16 PDZ domain fusion protein …; assay: A/G assays
[40] = target: T20, GST-MPP1 PDZ domain fusion protein (55 …); assay: A/G assays
[41] = target: T1, GST-NeDLG PDZ domain fusion protein …; assay: G assay, peptide titrated on immobilized GST-PDZ, saturation fit (apparent affinity)
Description: (§1) FIGS. 2A and 2B show the Apparent Affinity Determination for PDZ-Ligand Interactions. […] The binding to GST alone (<0.2 OD units) was subtracted from the binding to the fusion proteins to obtain the signal at each peptide concentration.

[42] = target: T14, GST-PSD95 PDZ domain fusion protein …; assay: as above
Description: as §1

T1 sequence (P08515 1-218, tags or fused parts left off): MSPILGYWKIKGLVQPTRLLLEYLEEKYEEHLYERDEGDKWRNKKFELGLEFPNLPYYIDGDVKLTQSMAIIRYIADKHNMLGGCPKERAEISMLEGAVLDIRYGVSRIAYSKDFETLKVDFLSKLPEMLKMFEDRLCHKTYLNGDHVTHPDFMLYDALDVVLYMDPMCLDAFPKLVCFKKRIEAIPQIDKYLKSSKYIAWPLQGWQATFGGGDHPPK
T2 sequence (P08515 1-218, tags or fused parts left off): as above
Chain of GST-NOS1 PDZ domain fusion protein (human neuronal nitric oxide synthase; PDZ domain 1 of 1) (P08515 1-218, tags or fused parts left off): as above
T14 sequence (P08515 1-218, tags or fused parts left off): as above
T7 sequence (P08515 1-218, tags or fused parts left off): as above
T9 sequence (P08515 1-218, tags or fused parts left off): as above
T3 sequence (P08515 1-218, tags or fused parts left off): as above
T17 sequence (P08515 1-218, tags or fused parts left off): as above
T8 sequence (P08515 1-218, tags or fused parts left off): as above
T15 sequence (P08515 1-218, tags or fused parts left off): as above
T4 sequence (P08515 1-218, tags or fused parts left off): as above
Chain of GST-LIMK2 PDZ domain fusion protein (human LIM domain kinase 2 AA185-275; PDZ domain 1 of 1) (P08515 1-218, tags or fused parts left off): as above
T20 sequence (P08515 1-218, tags or fused parts left off): as above
T5 sequence (P08515 1-218, tags or fused parts left off): as above
Chain of GST-PTN-4 PDZ domain fusion protein (protein-tyrosine phosphatase meg1 AA774-862; PDZ domain 1 of 1) (P08515 1-218, tags or fused parts left off): as above
Chain of GST-LIM PDZ domain fusion protein (Human LIM protein AA29-112; PDZ domain 1 of 1) (P08515 1-218, tags or fused parts left off): as above
Chain of GST-MINT3 PDZ domain fusion protein (human MINT3 AA11-52; PDZ domain 1 of 1) (P08515 1-218, tags or fused parts left off): as above
T19 sequence (P08515 1-218, tags or fused parts left off): as above
T13 sequence (P08515 1-218, tags or fused parts left off): as above
T10 sequence (P08515 1-218, tags or fused parts left off): as above
T11 sequence (P08515 1-218, tags or fused parts left off): as above

B1: CD44 (long form) C-terminal PL peptide AA9L, biotinylated (peptide)
peptide: Biotin-QFMTADETRNLQNVDMKIGV
binding result [1]: no binding
binding result [2]: no binding
binding result [3]: no binding
binding result [4]: no binding
binding result [5]: no binding
binding result [6]: no binding
binding result [7]: no binding
binding result [8]: no binding
binding result [9]: no binding
binding result [10]: no binding
binding result [11]: no binding
binding result [12]: no binding
binding result [13]: no binding
binding result [14]: no binding
binding result [15]: no binding
binding result [16]: no binding
binding result [17]: no binding
binding result [18]: no binding
binding result [19]: no binding
binding result [20]: no binding
binding result [21]: no binding
binding result [22]: no binding
binding result [23]: no binding
binding result [24]: binds
binding result [25]: binds

B2: Neurexin C-terminal PL peptide AA38L, biotinylated (peptide)
peptide: Biotin-SSAKSSNKNKKNKDKEYYV
binding result [26]: binds
binding result [27]: binds
binding result [28]: binds
binding result [29]: binds
binding result [30]: binds
binding result [31]: binds
binding result [32]: binds
binding result [33]: binds
binding result [34]: binds
binding result [35]: binds
binding result [2]: no binding
binding result [3]: no binding
binding result [5]: no binding
binding result [7]: no binding
binding result [8]: no binding
binding result [9]: no binding
binding result [11]: no binding
binding result [12]: no binding
binding result [14]: no binding
binding result [15]: no binding
binding result [18]: no binding
binding result [21]: no binding
binding result [36]: binds
binding result [37]: binds
binding result [38]: binds

B3: CD95 (Apo-1/Fas) C-terminal PL peptide AA13L, biotinylated (peptide)
peptide: Biotin-KDITSDSENSNFRNEIQSLV
binding result [2]: no binding
binding result [3]: no binding
binding result [4]: no binding
binding result [5]: no binding
binding result [39]: no binding
binding result [40]: no binding
binding result [6]: no binding
binding result [7]: no binding
binding result [8]: no binding
binding result [9]: no binding
binding result [10]: no binding
binding result [11]: no binding
binding result [12]: no binding
binding result [13]: no binding
binding result [14]: no binding
binding result [15]: no binding
binding result [16]: no binding
binding result [18]: no binding
binding result [19]: no binding
binding result [20]: no binding
binding result [21]: no binding
binding result [22]: no binding
Kd [41]: 54 µM
Kd [42]: 85 µM
